These results are taken from patent US20090203877A1, “X-RAY-DENSE CONJUGATE” (Eberhard-Karls-Universitaet Tuebingen Universitaetsklinkum, priority 2006, published 2009).

The data set concerns human malignant U373 glioma cells. The experiment in a line: Cell viability / cell death (MTT test, propidium iodide, annexin-V-Alexa 568 binding, FACS scatter morphology). The conditions noted are these: for binding of annexin-V-Alexa 568 reagent (phosphatidyl serine) / cytotoxic effects: 260 μM in 0.1% DMSO/PBS; for binding of annexin-V-Alexa 568 reagent (phosphatidyl serine) / cytotoxic effects / cytotoxic effects / signs of cell death: substance alone; for cytotoxic effects / signs of cell death: 260 μM in PBS. As for the experimental part:
Human malignant U373-glioma cells were grown to 70% confluency in RPMI-1640 Ready Mix Medium containing L-Glutamine and 10% FBS-Gold (PAA laboratories, Pasching, Austria) at 37° C., 5% CO2 (vol/vol), in 4-well-plates (NUNC, Wiesbaden, Germany) with about 300,000 cells pro well. […] After this, the cells were washed three times with buffer and then incubated with Ready Mix Medium again. Cell viability was then assessed by the addition of methyl-thiazoyl-tetrazolium (MTT) salt (Sigma-Aldrich, Germany) at a concentration of 15 mg/ml. After 20 minutes, the production of formazan was investigated. When blue formazan granules were detected, propidium iodine (PI) was added to the medium (1 μM PI; Molecular Probes, Eugene, Oreg., USA) to detect cells with damaged cell membranes. […] Pictures were taken with a 3-CCD color video camera (MC3254P, Sony, Japan) and the Axiovision Software (Carl Zeiss, Jena, Germany). The intensity of cell fluorescence was recorded at the exposure time necessary for the production of the fluorescence images.
After imaging, Accutase™ (PAA laboratories, Pasching, Austria) was added to the wells to achieve detachment of the cells for further FACS analysis. Fluorescence was measured in a Becton Dickinson FACSCalibur. A total of 20,000 events per sample were analyzed. The investigations were performed in triplicate.
A sample of cells from each Eppendorf tube was subjected to the MTT test (described under 1.4) to determine microscopically whether the cells were viable. In vitro CT of the cell pellets was performed with a Somatom Sensation 16 (Siemens) which is used for routine clinical investigations.
Cells were incubated for 20 minutes with each of the conjugates dissolved in 0.1% DMSO/PBS at 260 μm. The cells were also incubated with TIBA and both of the non-TIBA-containing conjugates (3 and 4) separately in 0.1% DMSO/OBS at 260 μm. Both TIBA and the conjugates were dissolved in 0.1% DMSO/PBS at 260 μm for incubation due to the insolubility of TIBA (but not the conjugates) in pure PBS. As controls, the cells were incubated with PBS alone, 0.1% DMSO/PBS alone, and TIBA alone (260 μm in 0.1% DMSO/PBS).
The detection of phosphatidyl serine in the outer membrane leaflet of apoptotic cells was performed with the Annexin-V-Alexa™-568-reagent according to manufacturer's protocol (Roche Molecular Biochemicals, Indianapolis, USA). The confocal laser-scanning microscopy was performed on an inverted LSM 510 laser-scanning microscope (Carl Zeiss, Jena, Germany) (objectives: LD Achroplan 40×0.6, Plan Neofluar 20×0.50, 40×0.75). For fluorescence excitation, the 488 nm line of an argon-ion laser and the […] line of a helium-neon laser with appropriate beam splitters and barrier filters were used for FITC and Alexa respectively. Superimposed images of FITC- and Alexa-stained samples were created by overlaying coincident views. All measurements were performed on living, non-fixed cells.
Human malignant LN18 and U373 glioma cells were cultivated in four-well plates (NUNC, Wiesbaden, Germany) (about 300,000 cells per well) as described under 1.5. […] The cells were also coincubated either with CIBA, FIBA or TBPI as well as the NLS-FITC conjugate 3 (each 260 μM). As a control cells were used which were only incubated either with CIBA, FIBA or TBPI (260 μM in PBS) alone. After the incubation the cells were washed three times with PBS and in the following again incubated in Ready Mix Medium. The FITC-labelled conjugates and the Alexa-Annexin for the detection of phosphatidylserine as a signal of the cell death were localized with the confocal laser microscopy (CLSM) as in 1.6.1. All measurements were performed on living cells.
(In general: Tetrazolium dyes change colour on reduction, which living cells bring about.)

Entries after “also recorded” stand apart in the source; their conditions may differ.

Take “PKKKRKVK(FITC)GGK (FITC, GGK linker) [conjugate 3]”: where the note is “20 min”, the “binding of annexin-V-Alexa 568 reagent (phosphatidyl serine) / cytotoxic effects” value is listed as “did not result in binding” and the “cytotoxic effects / signs of cell death” value was “did not show any signs of cell death; also recorded: without a sign of cell dead”. For the same substance, the “binding of annexin-V-Alexa 568 reagent / cell viability” value (conjugate co-incubated with free TIBA (260 μM)) was “fails to result in binding; also recorded: did not result in any changes”. Also, for the setting “non-TIBA conjugates, 26 μM, 260 μM and 2.6 mM”, the “cell viability / cell death” value is given as “No cell death”.

Turning to “PKKKRKVK(FITC)GGK(BA) (FITC, GGK linker, benzoic acid) [conjugate 9]”, where the note is “20 min”, the “cytotoxic effects / signs of cell death” value is reported as “no signs of cell death”.

In the case of “PKKKRKVK(FITC)GGK(TIBA) (FITC, GGK linker, TIBA) [conjugate 1]”, for the setting “26 μM, 20 min”, the “cell viability (MTT formazan, propidium iodide uptake)” value is listed as “living cells; also recorded: no signs of cell death”. Further, the “cellular morphology, side scatter versus forward scatter FACS” value (26 μM, compared to PBS controls) is given as “no changes in the cellular morphology”. Moreover, the “binding of annexin-V-Alexa 568 reagent (phosphatidyl serine) / cytotoxic effects” value (20 min) was “binding of annexin-V-Alexa™ 568 reagent was found; also recorded: Most of these cells show the expression of phosphatidyl serine in the outer membrane leaflet”.
